Laboratory results from publication PMC3213697.

Key:
Assay in all cases: SEC; gel filtration chromatography of the refolded precursor proteins after heparin affinity chromatography; peak D, dimer
[1] = molecular target: C313A myostatin precursor protein (UniProt O14793)
[2] = molecular target: C374A myostatin precursor protein (UniProt O14793)
[3] = molecular target: C313Y myostatin precursor protein (UniProt O14793)

C313A myostatin precursor protein (from UniProt O14793 24-375) (natural protein)
stoichiometry N [1]: 2

C374A myostatin precursor protein (from UniProt O14793 24-375) (natural protein)
stoichiometry N [2]: 2

C313Y myostatin precursor protein (from UniProt O14793 24-375) (natural protein)
stoichiometry N [3]: 2
